Numbered stars: 1 amine (or outer) side, 2 acyl side, 3 side chain; on linkers, the order of the positions; unused ones are H or OH. Bridge positions count the residues as written; N and C are the ends. Side chains are listed from the residue outwards. Ends that are not written are not given here. * marks the point of attachment. C20 diacid = O=C(O)CCCCCCCCCCCCCCCCCCC(=O)*; γGlu = O=C(O)[C@H](CCC(=O)[*:2])N[*:1]; AEEA = NCCOCCOCC(=O)O
B1: N^ε-[(4S)-4-carboxy-4-(19-carboxynonadecanoylamino)butanoyl]Lys[Arg1,Arg17,Pro21,Pro27,His35]-h-amylin (peptide)
peptide: K([γGlu-C20 diacid])RCNTATCATQRLANFLRHSSPNFGAIPSSTNVGSHTY-NH2
modifications: disulfide 3-8; N-terminus assumed
SMILES: CC[C@H](C)[C@H](NC(=O)[C@H](C)NC(=O)CNC(=O)[C@H](Cc1ccccc1)NC(=O)[C@H](CC(N)=O)NC(=O)[C@@H]1CCCN1C(=O)[C@H](CO)NC(=O)[C@H](CO)NC(=O)[C@H](Cc1c[nH]cn1)NC(=O)[C@H](CCCNC(=N)N)NC(=O)[C@H](CC(C)C)NC(=O)[C@H](Cc1ccccc1)NC(=O)[C@H](CC(N)=O)NC(=O)[C@H](C)NC(=O)[C@H](CC(C)C)NC(=O)[C@H](CCCNC(=N)N)NC(=O)[C@H](CCC(N)=O)NC(=O)[C@@H](NC(=O)[C@H](C)NC(=O)[C@@H]1CSSC[C@H](NC(=O)[C@H](CCCNC(=N)N)NC(=O)[C@@H](N)CCCCNC(=O)CC[C@H](NC(=O)CCCCCCCCCCCCCCCCCCC(=O)O)C(=O)O)C(=O)N[C@@H](CC(N)=O)C(=O)N[C@@H]([C@@H](C)O)C(=O)N[C@@H](C)C(=O)N[C@@H]([C@@H](C)O)C(=O)N1)[C@@H](C)O)C(=O)N1CCC[C@H]1C(=O)N[C@@H](CO)C(=O)N[C@@H](CO)C(=O)N[C@H](C(=O)N[C@@H](CC(N)=O)C(=O)N[C@H](C(=O)NCC(=O)N[C@@H](CO)C(=O)N[C@@H](Cc1c[nH]cn1)C(=O)N[C@H](C(=O)N[C@@H](Cc1ccc(O)cc1)C(N)=O)[C@@H](C)O)C(C)C)[C@@H](C)O
notes: Analogue of human amylin; also called compound 44
B2: N^-1-[(4S)-4-carboxy-4-(19-carboxynonadecanoylamino)butanoyl]-Gly[Arg1,Arg17,Pro21,Pro27,His35]-h-amylin (peptide)
peptide: {C20 diacid-γGlu}-GRCNTATCATQRLANFLRHSSPNFGAIPSSTNVGSHTY-NH2
modifications: disulfide 3-8
SMILES: CC[C@H](C)[C@H](NC(=O)[C@H](C)NC(=O)CNC(=O)[C@H](Cc1ccccc1)NC(=O)[C@H](CC(N)=O)NC(=O)[C@@H]1CCCN1C(=O)[C@H](CO)NC(=O)[C@H](CO)NC(=O)[C@H](Cc1c[nH]cn1)NC(=O)[C@H](CCCNC(=N)N)NC(=O)[C@H](CC(C)C)NC(=O)[C@H](Cc1ccccc1)NC(=O)[C@H](CC(N)=O)NC(=O)[C@H](C)NC(=O)[C@H](CC(C)C)NC(=O)[C@H](CCCNC(=N)N)NC(=O)[C@H](CCC(N)=O)NC(=O)[C@@H](NC(=O)[C@H](C)NC(=O)[C@@H]1CSSC[C@H](NC(=O)[C@H](CCCNC(=N)N)NC(=O)CNC(=O)CC[C@H](NC(=O)CCCCCCCCCCCCCCCCCCC(=O)O)C(=O)O)C(=O)N[C@@H](CC(N)=O)C(=O)N[C@@H]([C@@H](C)O)C(=O)N[C@@H](C)C(=O)N[C@@H]([C@@H](C)O)C(=O)N1)[C@@H](C)O)C(=O)N1CCC[C@H]1C(=O)N[C@@H](CO)C(=O)N[C@@H](CO)C(=O)N[C@H](C(=O)N[C@@H](CC(N)=O)C(=O)N[C@H](C(=O)NCC(=O)N[C@@H](CO)C(=O)N[C@@H](Cc1c[nH]cn1)C(=O)N[C@H](C(=O)N[C@@H](Cc1ccc(O)cc1)C(N)=O)[C@@H](C)O)C(C)C)[C@@H](C)O
notes: Analogue of human amylin; also called compound 47
B3: N^-1-[(4S)-4-carboxy-4-(19-carboxynonadecanoylamino)butanoyl]-Gly[Arg1,Arg17,Pro21,Pro27]-h-amylin (peptide)
peptide: {C20 diacid-γGlu}-GRCNTATCATQRLANFLRHSSPNFGAIPSSTNVGSNTY-NH2
modifications: disulfide 3-8
SMILES: CC[C@H](C)[C@H](NC(=O)[C@H](C)NC(=O)CNC(=O)[C@H](Cc1ccccc1)NC(=O)[C@H](CC(N)=O)NC(=O)[C@@H]1CCCN1C(=O)[C@H](CO)NC(=O)[C@H](CO)NC(=O)[C@H](Cc1c[nH]cn1)NC(=O)[C@H](CCCNC(=N)N)NC(=O)[C@H](CC(C)C)NC(=O)[C@H](Cc1ccccc1)NC(=O)[C@H](CC(N)=O)NC(=O)[C@H](C)NC(=O)[C@H](CC(C)C)NC(=O)[C@H](CCCNC(=N)N)NC(=O)[C@H](CCC(N)=O)NC(=O)[C@@H](NC(=O)[C@H](C)NC(=O)[C@@H]1CSSC[C@H](NC(=O)[C@H](CCCNC(=N)N)NC(=O)CNC(=O)CC[C@H](NC(=O)CCCCCCCCCCCCCCCCCCC(=O)O)C(=O)O)C(=O)N[C@@H](CC(N)=O)C(=O)N[C@@H]([C@@H](C)O)C(=O)N[C@@H](C)C(=O)N[C@@H]([C@@H](C)O)C(=O)N1)[C@@H](C)O)C(=O)N1CCC[C@H]1C(=O)N[C@@H](CO)C(=O)N[C@@H](CO)C(=O)N[C@H](C(=O)N[C@@H](CC(N)=O)C(=O)N[C@H](C(=O)NCC(=O)N[C@@H](CO)C(=O)N[C@@H](CC(N)=O)C(=O)N[C@H](C(=O)N[C@@H](Cc1ccc(O)cc1)C(N)=O)[C@@H](C)O)C(C)C)[C@@H](C)O
notes: Analogue of human amylin; also called compound 46
B4: N^ε-[2-[2-[2-[[(4S)-4-carboxy-4-(19-carboxynonadecanoylamino)butanoyl]amino]ethoxy]ethoxy]acetyl]Lys[Arg1,Arg17,Pro21,Pro27,His35]-h-amylin (peptide)
peptide: K([AEEA-γGlu-C20 diacid])RCNTATCATQRLANFLRHSSPNFGAIPSSTNVGSHTY-NH2
modifications: disulfide 3-8; N-terminus assumed
SMILES: CC[C@H](C)[C@H](NC(=O)[C@H](C)NC(=O)CNC(=O)[C@H](Cc1ccccc1)NC(=O)[C@H](CC(N)=O)NC(=O)[C@@H]1CCCN1C(=O)[C@H](CO)NC(=O)[C@H](CO)NC(=O)[C@H](Cc1c[nH]cn1)NC(=O)[C@H](CCCNC(=N)N)NC(=O)[C@H](CC(C)C)NC(=O)[C@H](Cc1ccccc1)NC(=O)[C@H](CC(N)=O)NC(=O)[C@H](C)NC(=O)[C@H](CC(C)C)NC(=O)[C@H](CCCNC(=N)N)NC(=O)[C@H](CCC(N)=O)NC(=O)[C@@H](NC(=O)[C@H](C)NC(=O)[C@@H]1CSSC[C@H](NC(=O)[C@H](CCCNC(=N)N)NC(=O)[C@@H](N)CCCCNC(=O)COCCOCCNC(=O)CC[C@H](NC(=O)CCCCCCCCCCCCCCCCCCC(=O)O)C(=O)O)C(=O)N[C@@H](CC(N)=O)C(=O)N[C@@H]([C@@H](C)O)C(=O)N[C@@H](C)C(=O)N[C@@H]([C@@H](C)O)C(=O)N1)[C@@H](C)O)C(=O)N1CCC[C@H]1C(=O)N[C@@H](CO)C(=O)N[C@@H](CO)C(=O)N[C@H](C(=O)N[C@@H](CC(N)=O)C(=O)N[C@H](C(=O)NCC(=O)N[C@@H](CO)C(=O)N[C@@H](Cc1c[nH]cn1)C(=O)N[C@H](C(=O)N[C@@H](Cc1ccc(O)cc1)C(N)=O)[C@@H](C)O)C(C)C)[C@@H](C)O
notes: Analogue of human amylin; also called compound 45
B5: N^ε1-[(4S)-4-carboxy-4-(19-carboxynonadecanoylamino)butanoyl]-[Arg17,Pro21,Pro27]-h-amylin (peptide)
peptide: K([γGlu-C20 diacid])CNTATCATQRLANFLRHSSPNFGAIPSSTNVGSNTY-NH2
modifications: disulfide 2-7; N-terminus assumed
SMILES: CC[C@H](C)[C@H](NC(=O)[C@H](C)NC(=O)CNC(=O)[C@H](Cc1ccccc1)NC(=O)[C@H](CC(N)=O)NC(=O)[C@@H]1CCCN1C(=O)[C@H](CO)NC(=O)[C@H](CO)NC(=O)[C@H](Cc1c[nH]cn1)NC(=O)[C@H](CCCNC(=N)N)NC(=O)[C@H](CC(C)C)NC(=O)[C@H](Cc1ccccc1)NC(=O)[C@H](CC(N)=O)NC(=O)[C@H](C)NC(=O)[C@H](CC(C)C)NC(=O)[C@H](CCCNC(=N)N)NC(=O)[C@H](CCC(N)=O)NC(=O)[C@@H](NC(=O)[C@H](C)NC(=O)[C@@H]1CSSC[C@H](NC(=O)[C@@H](N)CCCCNC(=O)CC[C@H](NC(=O)CCCCCCCCCCCCCCCCCCC(=O)O)C(=O)O)C(=O)N[C@@H](CC(N)=O)C(=O)N[C@@H]([C@@H](C)O)C(=O)N[C@@H](C)C(=O)N[C@@H]([C@@H](C)O)C(=O)N1)[C@@H](C)O)C(=O)N1CCC[C@H]1C(=O)N[C@@H](CO)C(=O)N[C@@H](CO)C(=O)N[C@H](C(=O)N[C@@H](CC(N)=O)C(=O)N[C@H](C(=O)NCC(=O)N[C@@H](CO)C(=O)N[C@@H](CC(N)=O)C(=O)N[C@H](C(=O)N[C@@H](Cc1ccc(O)cc1)C(N)=O)[C@@H](C)O)C(C)C)[C@@H](C)O
notes: Analogue of human amylin; also called compound 48

Assays:
[1] = target: T1, human calcitonin receptor (human, UniProt P30988 25-474); assay: IC50 on human CTR divided by IC50 on human amylin receptor (Assays VII/V)
T1 construct: whole, on cells; Used as membranes prepared from a BHK tk'ts 13 cell line stably transfected with the human calcitonin receptor (Assay VII); also called hCTR; hCT
T1 sequence (looked up): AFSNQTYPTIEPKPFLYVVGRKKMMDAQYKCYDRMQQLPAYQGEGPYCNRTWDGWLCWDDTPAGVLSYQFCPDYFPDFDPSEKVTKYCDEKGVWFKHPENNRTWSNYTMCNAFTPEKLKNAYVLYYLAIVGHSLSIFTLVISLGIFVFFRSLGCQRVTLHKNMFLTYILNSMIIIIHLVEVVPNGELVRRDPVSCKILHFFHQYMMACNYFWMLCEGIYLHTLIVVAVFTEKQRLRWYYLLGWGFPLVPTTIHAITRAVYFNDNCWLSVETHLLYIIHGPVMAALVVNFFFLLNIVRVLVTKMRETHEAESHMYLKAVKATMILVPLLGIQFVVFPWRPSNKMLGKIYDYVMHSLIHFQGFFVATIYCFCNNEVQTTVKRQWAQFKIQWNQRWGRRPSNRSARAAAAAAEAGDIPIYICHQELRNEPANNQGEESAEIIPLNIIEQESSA
Method in brief: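 Scintillation proximity competition binding on cell membranes at 35 ng/μL with SPA beads, in 50 mM Hepes pH 7.4, 1 mM CaCl2, 5 mM MgCl₂, 0.1% OA, 0.02% Tween20. Incubated 120 min at 25° C with shaking. IC₅₀ from one-site competition fit.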

[2] = target: T2, rat amylin receptor (rat calcitonin receptor + rat RAMP 3) (rat, UniProt P32214 25-516; Q9JJ73 23-147); assay: SPA competition with 125I-rat amylin, membranes of BHK cells with rat CTR + rat RAMP3 (Assay VI)
T2 construct: whole, on cells; Used as membranes prepared from BHK tk'ts 13 cells transiently transfected with rat calcitonin receptor and rat RAMP 3 (Assay VI); also called rAmylin-R; rat amylin 3(a) receptor
T2 sequence (looked up) 1: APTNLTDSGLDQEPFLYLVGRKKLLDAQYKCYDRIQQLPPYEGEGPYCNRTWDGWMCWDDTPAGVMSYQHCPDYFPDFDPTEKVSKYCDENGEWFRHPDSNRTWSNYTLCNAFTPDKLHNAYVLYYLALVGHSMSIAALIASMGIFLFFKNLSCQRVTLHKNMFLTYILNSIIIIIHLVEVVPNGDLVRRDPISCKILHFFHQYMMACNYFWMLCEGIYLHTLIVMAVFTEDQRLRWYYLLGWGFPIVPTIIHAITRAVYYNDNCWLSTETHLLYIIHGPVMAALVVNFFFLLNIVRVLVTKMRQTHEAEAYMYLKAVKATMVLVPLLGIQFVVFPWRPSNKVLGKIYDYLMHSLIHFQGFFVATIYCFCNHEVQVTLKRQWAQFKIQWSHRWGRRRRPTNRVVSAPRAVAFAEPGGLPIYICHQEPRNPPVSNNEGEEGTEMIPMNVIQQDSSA
T2 sequence (looked up) 2: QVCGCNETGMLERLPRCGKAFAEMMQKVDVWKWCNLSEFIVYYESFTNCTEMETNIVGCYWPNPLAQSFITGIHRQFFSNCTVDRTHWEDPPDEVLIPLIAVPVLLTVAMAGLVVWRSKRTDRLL

[3] = target: T3, rat calcitonin receptor (rat, UniProt P32214 25-516); assay: SPA competition with 125I-calcitonin, membranes of BHK cells with rat CTR (Assay VIII)
T3 construct: whole, on cells; Used as membranes prepared from BHK tk'ts 13 cells transiently transfected with the rat calcitonin receptor (Assay VIII); also called rCTR; rat calcitonin (a) receptor
T3 sequence (looked up): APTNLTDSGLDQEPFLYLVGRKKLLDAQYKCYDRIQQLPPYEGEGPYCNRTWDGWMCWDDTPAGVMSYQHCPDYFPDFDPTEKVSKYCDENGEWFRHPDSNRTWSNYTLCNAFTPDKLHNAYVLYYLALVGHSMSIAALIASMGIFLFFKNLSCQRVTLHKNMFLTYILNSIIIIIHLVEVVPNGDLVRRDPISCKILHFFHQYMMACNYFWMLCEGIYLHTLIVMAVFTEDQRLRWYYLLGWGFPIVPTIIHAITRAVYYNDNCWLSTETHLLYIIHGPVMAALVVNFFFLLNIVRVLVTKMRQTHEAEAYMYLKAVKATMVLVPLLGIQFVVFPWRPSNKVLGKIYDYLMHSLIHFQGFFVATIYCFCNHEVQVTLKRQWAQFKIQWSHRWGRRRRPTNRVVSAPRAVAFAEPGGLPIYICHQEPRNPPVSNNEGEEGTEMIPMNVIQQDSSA

[4] = target: T3, rat calcitonin receptor; assay: IC50 on rat CTR divided by IC50 on rat amylin receptor (Assays VIII/VI)

Ratio hCT/hAmylin binding [1] | IC50 [2] | IC50 [3] | Ratio rCT/rAmylin binding [4] | Binder
17.7 | 0.369 nM | 19.6 nM | 53.3 | B1
44.9 | 0.203 nM | 17.1 nM | 84.3 | B2
48.9 | 0.33 nM | 46.8 nM | 142 | B3
26.8 | 0.623 nM | 41.8 nM | 67.1 | B4
69.7 | 0.558 nM | 112 nM | 201 | B5
